{"source": "patent US20240376170A1", "about": "(BRIGHT PEAK THERAPEUTICS, published 2024)", "binders": {"B1": {"name": "CMP-156 (ligand)", "chain": "APTSSSTKKTQLQLEHLLEDLQ[Nle]ILNGINNYKNPKLTR[Nle]L[hSer][Yn3″]KF[Ygp″][Nle]PKKATELKHLQCLEEELKPLEEVL[hSer]LAQSKNFHLRPRDLISNINVIVLELKGSETTF[hSer]CEYADETATIVEFLNRWITFSQSIISTLT", "modifications": "linker N-19 via GPLGLAG‑PEG4"}, "B2": {"name": "CMP-161, MMP2 cleaved molecule (ligand)", "chain": "PLGLAGAPTSSSTKKTQLQLEHLLLDLQ[Nle]ILEGINNYKNPKLTR[Nle]L[hSer][Yn3(4)]KF[Ygp(4)][Nle]PKKATELKHLQCLEEELKPLEEVL[hSer]LAQSKNFHLRPRDLISNINVIVLELKGSETTF[hSer]CEYADETATIVEFLNRWITFSQSIISTLT", "modifications": "not fully specified (bridges); ends and bridges not checked; also: MMP2 cleaved, site not given here"}, "B3": {"name": "CMP-161 (ligand)", "chain": "PLGLAGAPTSSSTKKTQLQLEHLLLDLQ[Nle]ILEGINNYKNPKLTR[Nle]L[hSer][Yn3(4)]KF[Ygp(4)][Nle]PKKATELKHLQCLEEELKPLEEVL[hSer]LAQSKNFHLRPRDLISNINVIVLELKGSETTF[hSer]CEYADETATIVEFLNRWITFSQSIISTLT", "modifications": "bridge N-32; not fully specified (N-terminus, bridges); ends not checked"}, "B4": {"name": "CMP-162, MMP2 cleaved molecule (ligand)", "chain": "APTSSSTKKTQLQLEHLLLDLQKILNGINNYKNPKLTR[Nle]L[hSer][Yn3(4)]KF[Ygp(4)][Nle]PKKATELKHLQCLEEELKPLEEVL[hSer]LAQSKNFHLRPRDLISNINVIVLELKGSETTF[hSer]CEYADETATIVEFLNRWITFSQSIISTLT", "modifications": "not fully specified; ends and bridges not checked; also: MMP2 cleaved, cleavage site and linker fragment on Lys23 side chain not given here"}, "B5": {"name": "CMP-155, MMP2 cleaved molecule (ligand)", "chain": "APTSSSTKKTQLQLEHLLLDLQ[Nle]ILNGIENYKNPKLTR[Nle]L[hSer][Yn3″]KF[Ygp″][Nle]PKKATELKHLQCLEEELKPLEEVL[hSer]LAQSKNFHLRPRDLISNINVIVLELKGSETTF[hSer]CEYADETATIVEFLNRWITFSQSIISTLT", "modifications": "not fully specified; also: cleaved by MMP2, cleavage product not defined, N-terminal PEG9 link and Glu29 side-chain attachment of the cleavable peptide not defined"}, "B6": {"name": "CMP-158, MMP2 cleaved molecule (ligand)", "chain": "APTSSSTKKTQLQLEHLLLDLE[Nle]ILNGINNYKNPKLTR[Nle]L[hSer][Yn3(4)]KF[Ygp(4)][Nle]PKKATELKHLQCLEEELKPLEEVL[hSer]LAQSKNFHLRPRDLISNINVIVLELKGSETTF[hSer]CEYADETATIVEFLNRWITFSQSIISTLT", "modifications": "not fully specified; ends and bridges not checked; also: MMP2 cleaved, cleavage site and linker fragments on N-terminus and Glu22 side chain not given here"}, "B7": {"name": "CMP-158 (ligand)", "chain": "GPLGLAG[PEG4′]APTSSSTKKTQLQLEHLLLDLE[Nle]ILNGINNYKNPKLTR[Nle]L[hSer][Yn3(4)]KF[Ygp(4)][Nle]PKKATELKHLQCLEEELKPLEEVL[hSer]LAQSKNFHLRPRDLISNINVIVLELKGSETTF[hSer]CEYADETATIVEFLNRWITFSQSIISTLT", "modifications": "bridge N-30; not fully specified (bridges); ends not checked"}, "B8": {"name": "CMP-157, MMP2 cleaved molecule (ligand)", "chain": "PLGLAGAPTSSSTKKTQLQLEHLLEDLQ[Nle]ILNGINNYKNPKLTR[Nle]L[hSer][Yn3″]KF[Ygp″][Nle]PKKATELKHLQCLEEELKPLEEVL[hSer]LAQSKNFHLRPRDLISNINVIVLELKGSETTF[hSer]CEYADETATIVEFLNRWITFSQSIISTLT", "modifications": "not fully specified (bridges); also: MMP2 cleaved, site not given here"}, "B9": {"name": "CMP-160, MMP2 cleaved molecule (ligand)", "chain": "APTSSSTKKTQLQLEHLLLDLQ[Nle]ILEGINNYKNPKLTR[Nle]L[hSer][Yn3(4)]KF[Ygp(4)][Nle]PKKATELKHLQCLEEELKPLEEVL[hSer]LAQSKNFHLRPRDLISNINVIVLELKGSETTF[hSer]CEYADETATIVEFLNRWITFSQSIISTLT", "modifications": "not fully specified; ends and bridges not checked; also: MMP2 cleaved, cleavage site and linker fragments on N-terminus and Glu26 side chain not given here"}, "B10": {"name": "CMP-156, MMP2 cleaved molecule (ligand)", "chain": "APTSSSTKKTQLQLEHLLEDLQ[Nle]ILNGINNYKNPKLTR[Nle]L[hSer][Yn3″]KF[Ygp″][Nle]PKKATELKHLQCLEEELKPLEEVL[hSer]LAQSKNFHLRPRDLISNINVIVLELKGSETTF[hSer]CEYADETATIVEFLNRWITFSQSIISTLT", "modifications": "not fully specified; also: MMP2 cleaved, cleavage site and linker fragments on N-terminus and Glu19 side chain not given here"}, "B11": {"name": "CMP-157 (ligand)", "chain": "PLGLAGAPTSSSTKKTQLQLEHLLEDLQ[Nle]ILNGINNYKNPKLTR[Nle]L[hSer][Yn3″]KF[Ygp″][Nle]PKKATELKHLQCLEEELKPLEEVL[hSer]LAQSKNFHLRPRDLISNINVIVLELKGSETTF[hSer]CEYADETATIVEFLNRWITFSQSIISTLT", "modifications": "linker N-25 via PEG4′"}, "B12": {"name": "CMP-159 (ligand)", "chain": "PLGLAGAPTSSSTKKTQLQLEHLLLDLE[Nle]ILNGINNYKNPKLTR[Nle]L[hSer][Yn3(4)]KF[Ygp(4)][Nle]PKKATELKHLQCLEEELKPLEEVL[hSer]LAQSKNFHLRPRDLISNINVIVLELKGSETTF[hSer]CEYADETATIVEFLNRWITFSQSIISTLT", "modifications": "bridge N-28; not fully specified (N-terminus, bridges); ends not checked"}, "B13": {"name": "CMP-162 (ligand)", "chain": "APTSSSTKKTQLQLEHLLLDLQKILNGINNYKNPKLTR[Nle]L[hSer][Yn3(4)]KF[Ygp(4)][Nle]PKKATELKHLQCLEEELKPLEEVL[hSer]LAQSKNFHLRPRDLISNINVIVLELKGSETTF[hSer]CEYADETATIVEFLNRWITFSQSIISTLT", "modifications": "ends and bridges not checked; also: further groups not given here"}, "B14": {"name": "CMP-155 (ligand)", "chain": "APTSSSTKKTQLQLEHLLLDLQ[Nle]ILNGIENYKNPKLTR[Nle]L[hSer][Yn3″]KF[Ygp″][Nle]PKKATELKHLQCLEEELKPLEEVL[hSer]LAQSKNFHLRPRDLISNINVIVLELKGSETTF[hSer]CEYADETATIVEFLNRWITFSQSIISTLT", "modifications": "linker N-29 via GPLGLAG‑PEG9"}, "B15": {"name": "CMP-159, MMP2 cleaved molecule (ligand)", "chain": "PLGLAGAPTSSSTKKTQLQLEHLLLDLE[Nle]ILNGINNYKNPKLTR[Nle]L[hSer][Yn3(4)]KF[Ygp(4)][Nle]PKKATELKHLQCLEEELKPLEEVL[hSer]LAQSKNFHLRPRDLISNINVIVLELKGSETTF[hSer]CEYADETATIVEFLNRWITFSQSIISTLT", "modifications": "not fully specified (bridges); ends and bridges not checked; also: MMP2 cleaved, site not given here"}, "B16": {"name": "CMP-160 (ligand)", "chain": "GPLGLAG[PEG9′]APTSSSTKKTQLQLEHLLLDLQ[Nle]ILEGINNYKNPKLTR[Nle]L[hSer][Yn3(4)]KF[Ygp(4)][Nle]PKKATELKHLQCLEEELKPLEEVL[hSer]LAQSKNFHLRPRDLISNINVIVLELKGSETTF[hSer]CEYADETATIVEFLNRWITFSQSIISTLT", "modifications": "bridge N-34; not fully specified (bridges); ends not checked"}}, "note": "Bridges are numbered along the chain shown (N, C = ends). Primed or numbered codes have the meaning given here. [ ]: non-standard residue; d: D form. Ygp(4) = Tyr with amino-capped PEG8 (O-(8x polyethylene glycol-amino)-tyrosine); Yn3(4) = Tyr with azide-capped PEG9 (O-(9x polyethylene glycol-azido)-tyrosine); Ygp″ = O-(8x polyethylene glycol-amino)-tyrosine; Yn3″ = O-(9x polyethylene glycol-azido)-tyrosine; PEG4′ = 4x polyethylene glycol; PEG9′ = 9x polyethylene glycol; hSer = N[C@@H](CCO)C(=O)O; Nle = CCCC[C@H](N)C(=O)O"}
{"molecular_target": "T1, IL-2 receptor βγ complex (human, UniProt P14784 27-551; P31785 23-369)", "T1 sequence (looked up) 1": "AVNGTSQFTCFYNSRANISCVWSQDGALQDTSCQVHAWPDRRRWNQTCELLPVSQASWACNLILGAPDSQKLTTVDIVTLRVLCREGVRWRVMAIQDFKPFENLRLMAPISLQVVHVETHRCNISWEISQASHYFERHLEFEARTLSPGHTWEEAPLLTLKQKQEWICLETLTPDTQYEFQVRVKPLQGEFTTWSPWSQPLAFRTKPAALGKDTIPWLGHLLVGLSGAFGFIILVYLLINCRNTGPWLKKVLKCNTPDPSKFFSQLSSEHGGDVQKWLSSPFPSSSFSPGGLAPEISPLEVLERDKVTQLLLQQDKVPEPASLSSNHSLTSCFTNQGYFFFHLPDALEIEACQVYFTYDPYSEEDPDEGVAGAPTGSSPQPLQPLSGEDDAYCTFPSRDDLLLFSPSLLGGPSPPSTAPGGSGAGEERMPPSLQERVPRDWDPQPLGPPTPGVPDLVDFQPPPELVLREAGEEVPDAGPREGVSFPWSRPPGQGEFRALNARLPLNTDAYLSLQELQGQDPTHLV", "T1 sequence (looked up) 2": "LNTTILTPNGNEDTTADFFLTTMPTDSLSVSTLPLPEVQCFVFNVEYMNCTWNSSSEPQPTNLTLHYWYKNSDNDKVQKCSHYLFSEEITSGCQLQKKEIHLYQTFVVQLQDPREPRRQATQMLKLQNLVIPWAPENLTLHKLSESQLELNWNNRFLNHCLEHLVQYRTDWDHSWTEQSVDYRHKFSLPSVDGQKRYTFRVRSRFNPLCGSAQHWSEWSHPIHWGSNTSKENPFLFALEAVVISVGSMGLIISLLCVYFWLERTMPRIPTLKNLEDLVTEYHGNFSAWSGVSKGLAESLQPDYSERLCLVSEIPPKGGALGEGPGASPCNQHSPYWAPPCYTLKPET", "assay": "cell-based or functional assay", "units": {"Average EC50, pSTAT5 Assay (T cells)": "nM"}}
{"binder": "B1", "Average EC50, pSTAT5 Assay (T cells)": 86}
{"binder": "B2", "Average EC50, pSTAT5 Assay (T cells)": 3.59}
{"binder": "B3", "Average EC50, pSTAT5 Assay (T cells)": 29.4}
{"binder": "B4", "Average EC50, pSTAT5 Assay (T cells)": 0.758}
{"binder": "B5", "Average EC50, pSTAT5 Assay (T cells)": 2.9}
{"binder": "B6", "Average EC50, pSTAT5 Assay (T cells)": 1.95}
{"binder": "B7", "Average EC50, pSTAT5 Assay (T cells)": 36.6}
{"binder": "B8", "Average EC50, pSTAT5 Assay (T cells)": 10}
{"binder": "B9", "Average EC50, pSTAT5 Assay (T cells)": 2.21}
{"binder": "B10", "Average EC50, pSTAT5 Assay (T cells)": 21.3}
{"binder": "B11", "Average EC50, pSTAT5 Assay (T cells)": 54.5}
{"binder": "B12", "Average EC50, pSTAT5 Assay (T cells)": 35.5}
{"binder": "B13", "Average EC50, pSTAT5 Assay (T cells)": 2.79}
{"binder": "B14", "Average EC50, pSTAT5 Assay (T cells)": 10.7}
{"binder": "B15", "Average EC50, pSTAT5 Assay (T cells)": 2.27}
{"binder": "B16", "Average EC50, pSTAT5 Assay (T cells)": 27.8}
